# Reference: patent publication EP4667489A1 (Kyinno Biotechnology Co., Ltd., dated 2025)
# T1: human LAG3 expressed on 293T-LAG3 cells (human, UniProt P18627 23-525)
# T1 construct: whole, on cells; 293T cells stably expressing human LAG3 (Kyinno KC-0214); also called LAG3-expressing cells
# T1 sequence (looked up): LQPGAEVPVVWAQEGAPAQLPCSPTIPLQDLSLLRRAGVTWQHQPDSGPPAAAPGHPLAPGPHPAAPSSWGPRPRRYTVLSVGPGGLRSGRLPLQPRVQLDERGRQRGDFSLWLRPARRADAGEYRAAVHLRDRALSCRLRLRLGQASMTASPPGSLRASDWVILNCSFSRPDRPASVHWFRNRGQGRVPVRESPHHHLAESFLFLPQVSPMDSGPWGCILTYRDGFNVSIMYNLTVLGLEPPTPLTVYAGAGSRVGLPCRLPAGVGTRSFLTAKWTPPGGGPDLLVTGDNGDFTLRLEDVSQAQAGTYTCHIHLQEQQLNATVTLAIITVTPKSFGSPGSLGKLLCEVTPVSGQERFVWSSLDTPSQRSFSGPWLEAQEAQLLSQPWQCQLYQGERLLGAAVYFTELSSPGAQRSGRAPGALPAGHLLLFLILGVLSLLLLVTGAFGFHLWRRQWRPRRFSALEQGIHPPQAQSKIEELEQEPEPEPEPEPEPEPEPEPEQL
# T2: LAG3-mFc (fusion protein of the human LAG3 extracellular domain and mouse IgG2a-Fc) (human; mouse, UniProt P18627 23-450)
# T2 construct: extracellular domain; also called human LAG3-mFc; not shown: mouse IgG2a-Fc, Genbank AAH31470.1
# T2 sequence (looked up): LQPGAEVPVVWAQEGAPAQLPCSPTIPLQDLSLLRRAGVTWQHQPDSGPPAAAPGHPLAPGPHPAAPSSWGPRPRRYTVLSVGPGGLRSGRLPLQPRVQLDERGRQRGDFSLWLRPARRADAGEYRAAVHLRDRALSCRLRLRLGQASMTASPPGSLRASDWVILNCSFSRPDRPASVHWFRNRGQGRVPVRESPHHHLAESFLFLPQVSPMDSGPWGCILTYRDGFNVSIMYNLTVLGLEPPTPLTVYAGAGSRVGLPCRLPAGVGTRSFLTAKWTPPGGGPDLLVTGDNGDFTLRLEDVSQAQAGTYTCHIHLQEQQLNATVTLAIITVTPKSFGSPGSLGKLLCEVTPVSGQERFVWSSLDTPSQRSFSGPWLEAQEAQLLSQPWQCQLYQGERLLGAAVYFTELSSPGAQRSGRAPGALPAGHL
# T3: LAG3-His (ACRO, Cat No.: LA3-H5222) (UniProt P18627 23-450)
# T3 construct: bought protein; not shown: His tag
# T3 sequence (looked up): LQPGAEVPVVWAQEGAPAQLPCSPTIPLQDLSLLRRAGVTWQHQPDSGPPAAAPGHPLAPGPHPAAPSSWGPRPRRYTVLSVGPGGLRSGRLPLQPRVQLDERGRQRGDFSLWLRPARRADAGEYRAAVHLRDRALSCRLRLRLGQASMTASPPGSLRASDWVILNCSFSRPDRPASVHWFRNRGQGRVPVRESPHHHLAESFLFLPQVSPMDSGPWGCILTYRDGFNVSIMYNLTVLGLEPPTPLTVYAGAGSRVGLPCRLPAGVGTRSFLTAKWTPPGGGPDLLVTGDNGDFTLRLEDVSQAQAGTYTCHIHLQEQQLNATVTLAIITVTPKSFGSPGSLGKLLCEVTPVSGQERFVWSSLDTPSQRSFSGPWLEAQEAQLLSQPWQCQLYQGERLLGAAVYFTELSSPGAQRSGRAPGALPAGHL
# Tests used:
# [1] = target: T4, PD1-mFc (fusion protein of the human PD1 extracellular domain and mouse IgG2a-Fc) (human; mouse, UniProt Q15116 25-170); assay: flow cytometry, blocking of PD1-mFc binding to 293T-PDL1 cells
# T4 construct: extracellular domain; not shown: mouse IgG2a-Fc, Genbank AAH31470.1
# T4 sequence (Q15116 25-170): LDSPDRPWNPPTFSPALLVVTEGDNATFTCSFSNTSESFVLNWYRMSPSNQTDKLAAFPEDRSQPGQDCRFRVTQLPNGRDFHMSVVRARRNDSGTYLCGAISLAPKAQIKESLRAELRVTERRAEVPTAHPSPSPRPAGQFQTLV
# [2] = target: T5, human PD1 expressed on 293T-PD1 cells (human, UniProt Q15116 25-288); assay: flow cytometry on 293T-PD1 cells
# T5 construct: whole, on cells; 293T cells stably expressing human PD1 (Kyinno KC-0204); also called PD1-expressing cells; Jurkat NFAT-PD1-luc cells
# T5 sequence (Q15116 25-288): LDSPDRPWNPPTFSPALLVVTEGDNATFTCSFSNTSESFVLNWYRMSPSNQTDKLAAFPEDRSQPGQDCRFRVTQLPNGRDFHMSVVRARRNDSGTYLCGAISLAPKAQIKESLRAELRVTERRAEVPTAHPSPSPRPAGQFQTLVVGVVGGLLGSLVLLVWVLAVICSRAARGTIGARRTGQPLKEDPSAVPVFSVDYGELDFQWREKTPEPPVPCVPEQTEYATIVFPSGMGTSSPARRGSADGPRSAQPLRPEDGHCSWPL
# [3] = target: T1, human LAG3 expressed on 293T-LAG3 cells; assay: flow cytometry on 293T-LAG3 cells
# [4] = target: T2, LAG3-mFc (fusion protein of the human …); assay: flow cytometry, blocking of LAG3-mFc binding to Daudi cells
# [5] = target: T6, PDL1-His (Kyinno, Cat No.: KP-1022) (UniProt Q9NZQ7 19-238, limits assumed); assay: BLI (ForteBio Octet), PDL1-His as mobile phase
# T6 construct: not shown: His tag
# T6 sequence (Q9NZQ7 19-238 limits assumed): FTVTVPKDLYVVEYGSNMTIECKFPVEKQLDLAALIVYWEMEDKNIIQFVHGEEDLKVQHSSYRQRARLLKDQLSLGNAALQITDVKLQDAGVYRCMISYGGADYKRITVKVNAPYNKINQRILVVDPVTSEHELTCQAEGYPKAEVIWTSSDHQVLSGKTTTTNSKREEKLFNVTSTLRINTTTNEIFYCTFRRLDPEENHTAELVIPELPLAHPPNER
# [6] = target: T7, human PDL1 expressed on 293T-PDL1 cells (human, UniProt Q9NZQ7 19-290); assay: flow cytometry on 293T-PDL1 cells
# T7 construct: whole, on cells; in the signalling assays PDL1 stood on 293T OS8-hPDL1 cells (Kyinno KC-1148); also called PDL1-expressing cells; 293T OS8-hPDL1 cells
# T7 sequence (Q9NZQ7 19-290): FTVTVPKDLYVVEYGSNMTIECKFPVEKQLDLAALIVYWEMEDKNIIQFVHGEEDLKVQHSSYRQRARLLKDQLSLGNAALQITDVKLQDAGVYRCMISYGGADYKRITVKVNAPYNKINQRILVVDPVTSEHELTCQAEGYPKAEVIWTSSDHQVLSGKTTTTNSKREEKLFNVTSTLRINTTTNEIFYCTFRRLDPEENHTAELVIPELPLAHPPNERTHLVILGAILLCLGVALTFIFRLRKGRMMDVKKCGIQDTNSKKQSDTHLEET
# [7] = target: T8, EGFR-His (Kyinno, Cat No.: KP-1150) (UniProt P00533 25-645, limits assumed); assay: BLI (ForteBio Octet), EGFR-His as mobile phase
# T8 construct: bought; not shown: His tag
# [8] = target: T7, human PDL1 expressed on 293T-PDL1 cells; assay: cell-based or functional assay
# [9] = target: T9, human EGFR expressed on CT26-EGFR cells (human, UniProt P00533 25-1210); assay: flow cytometry on CT26-EGFR cells
# T9 construct: whole, on cells; CT26 cells stably expressing human EGFR (Kyinno KC-1451); also called EGFR-expressing cells; 293T-NFAT-Luc2-EGFR cells
# [10] = target: T9, human EGFR expressed on CT26-EGFR cells; assay: flow cytometry, blocking of EGF-mFc binding to CT26-EGFR cells
# [11] = target: T9, human EGFR expressed on CT26-EGFR cells; assay: cell-based or functional assay
# [12] = target: T10, PDL1-mFc (fusion protein of the human PDL1 extracellular domain and mouse Fc; Kyinno, Cat No.: KP-1008) (human; mouse, UniProt Q9NZQ7 19-238); assay: flow cytometry, blocking of PDL1-mFc binding to 293T-PD1 cells
# T10 construct: extracellular domain; bought; also called human PDL1-mFc; not shown: mouse Fc
# T10 sequence (Q9NZQ7 19-238): as the sequence (Q9NZQ7 19-238 limits assumed) above
# [13] = target: T3, LAG3-His (ACRO, Cat No.: LA3-H5222); assay: BLI (ForteBio Octet), LAG3-His as mobile phase
# [14] = target: T11, PD1-His (Kyinno, Cat No.: KP-1023) (UniProt Q15116 25-167, limits assumed); assay: BLI (ForteBio Octet), PD1-His as mobile phase
# T11 construct: bought protein; not shown: His tag
# T11 sequence (Q15116 25-167 limits assumed): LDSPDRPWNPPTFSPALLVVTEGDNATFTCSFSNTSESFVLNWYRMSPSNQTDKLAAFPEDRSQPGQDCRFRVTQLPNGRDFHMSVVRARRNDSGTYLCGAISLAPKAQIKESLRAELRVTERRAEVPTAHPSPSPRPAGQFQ
binder,measurement,setting,value
"KA-1773 M107D12-10CLC1-hIgG4M (antibody, V domains shown, anti-PD1 chimeric antibody, human IgG4 (S228P) / kappa) VH: QVQLKESGGGLVKPGGSLKLSCAASGFTFSDYGMHWVRQAPEKGLEWVAYISSGSYTIYYADTVRDRFTISRDSAKNTLFLQMTSLRSEDTAMYYCVRRGPGYFGSTALDYWGQGTTLTVSS VL: QIVLTQSPAIMSASPGEKVTMTCSATSGVSYMHWYQQKSGTSPKRWIYDTSRLASGVPARFSGSGSGTSYSLTISSMEAEDAATYYCQQWSSNPPYTFGSGTKLEIKR",IC50,[1],0.256 µg/mL
same,EC50,[2],0.265 µg/mL
"KA-1728 M28G2-7CLC1-hIgG4M (antibody, V domains shown) VH: DVKLQESGPGLVKPSQSLSLTCSVTGYSFTSGYYWNWIRLFPGNKLEWMGYVSYFGTNNYNPSLKNRFSITRDTSKNQFFLKLNSVSTEDTATYYCARGEEWDWSFDVWGTGTTVTVSS VL: QIVLTQSPAIMSASPGEKVTMTCSATSGVSYMHWYQQKSGTSPKRWIYDTSRLASGVPARFSGSGSGTSYSLTISSMEAEDAATYYCQQWSSNPPYTFGSGTKLEIKR",EC50,[3],0.118 µg/mL
same,IC50,[4],0.805 µg/mL
"KA-1733 M28G2-7CLC2-hIgG4M (antibody, V domains shown) VH: DVKLQESGPGLVKPSQSLSLTCSVTGYSFTSGYYWNWIRLFPGNKLEWMGYVSYFGTNNYNPSLKNRFSITRDTSKNQFFLKLNSVSTEDTATYYCARGEEWDWSFDVWGTGTTVTVSS VL: QIVLTQSPAIMSASPGEKVTMTCSASSSVSYMHWYQQKSGTSPKRWIYDTSKLASGVPARFSGSGSGTSYSLTISSMEAEDAATYYCQQWSSNPPYTFGSGTKLEIKR",EC50,[3],0.0649 µg/mL
same,IC50,[4],0.563 µg/mL
"KA-1774 M107D12-10CLC2-hIgG4M (antibody, V domains shown) VH: QVQLKESGGGLVKPGGSLKLSCAASGFTFSDYGMHWVRQAPEKGLEWVAYISSGSYTIYYADTVRDRFTISRDSAKNTLFLQMTSLRSEDTAMYYCVRRGPGYFGSTALDYWGQGTTLTVSS VL: QIVLTQSPAIMSASPGEKVTMTCSASSSVSYMHWYQQKSGTSPKRWIYDTSKLASGVPARFSGSGSGTSYSLTISSMEAEDAATYYCQQWSSNPPYTFGSGTKLEIKR",IC50,[1],0.218 µg/mL
same,EC50,[2],0.272 µg/mL
"KA-2073 H22A12×58E3-CLC02 (bispecific antibody, human IgG1, kappa, EGFR×PDL1 bispecific; first heavy chain targets EGFR (hIgG1 Knob), second targets PDL1 (hIgG1 Hole); common light chain 3) heavy 1: not shown heavy 2: not shown light: DIQLTQSPSTLSASVGDRVTITCSATSSIGYMHWYQQKPGTSPKRWIYDTSKLASGVPSRFSGSGSGTEYTLTISSLQPDDFATYYCQLWSSDPPYTFGQGTRLEIKRTVAAPSVFIFPPSDEQLKSGTASVVCLLNNFYPREAKVQWKVDNALQSGNSQESVTEQDSKDSTYSLSSTLTLSKADYEKHKVYACEVTHQGLSSPVTKSFNRGEC",Kd,[5],602 pM
same,koff,[5],0.00126 s⁻¹
same,kon,[5],2.09e+06 M⁻¹ s⁻¹
same,EC50,[6],0.521 µg/mL
same,Kd,[7],5640 pM
same,koff,[7],0.00449 s⁻¹
same,kon,[7],796000 M⁻¹ s⁻¹
same,"IC50, luciferase reporter (procedure of Example 30)",[8],429 pM
same,EC50,[9],0.0358 µg/mL
same,IC50,[10],0.0123 µg/mL
same,"IC50, luciferase reporter (procedure of Example 34)",[11],1050 pM
same,IC50,[12],0.129 µg/mL
"KA-2072 H22A12×58E3-CLC01 (bispecific antibody, human IgG1, kappa, EGFR×PDL1 bispecific; first heavy chain targets EGFR (hIgG1 Knob), second targets PDL1 (hIgG1 Hole); common light chain 1) heavy 1: not shown heavy 2: not shown light: DIQITQSPSSLSASVGDRVTITCSATSGVSYMHWYQQKPGKAPKRLIYDTSRLASGVPSRFSGSGSGTDYTLTISSLQPEDFATYYCQQWSSNPPYTFGQGTRLEIKRTVAAPSVFIFPPSDEQLKSGTASVVCLLNNFYPREAKVQWKVDNALQSGNSQESVTEQDSKDSTYSLSSTLTLSKADYEKHKVYACEVTHQGLSSPVTKSFNRGEC",Kd,[5],464 pM
same,koff,[5],0.000426 s⁻¹
same,kon,[5],918000 M⁻¹ s⁻¹
same,EC50,[6],0.422 µg/mL
same,Kd,[7],4210 pM
same,koff,[7],0.00295 s⁻¹
same,kon,[7],701000 M⁻¹ s⁻¹
same,"IC50, luciferase reporter (procedure of Example 30)",[8],372 pM
same,EC50,[9],0.0393 µg/mL
same,IC50,[10],0.0155 µg/mL
same,"IC50, luciferase reporter (procedure of Example 34)",[11],1010 pM
same,IC50,[12],0.122 µg/mL
"KA-1782 H28G2-7V4-hIgG4M (antibody, V domains shown, anti-LAG3 humanized antibody, human IgG4 (S228P) / kappa) VH: QVQLQESGPGLVKPSETLSLTCTVSGYSFTSGYYWNWIRQPPGKGLEWIGYVSYFGTANYNPALKNRVTISRDTSKNQFSLKLSSVTAADTAVYYCARGEEWDWSFDVWGQGTTVTVSS VL: DIQITQSPSSLSASVGDRVTITCSATSGVSYMHWYQQKPGKAPKRLIYDTSRLASGVPSRFSGSGSGTDYTLTISSLQPEDFATYYCQQWSSNPPYTFGQGTRLEIKR",EC50,[3],0.0674 µg/mL
same,Kd,[13],174 pM
same,koff,[13],0.000153 s⁻¹
same,kon,[13],881000 M⁻¹ s⁻¹
same,IC50,[4],0.476 µg/mL
"KA-1807 H107D12-10V4-hIgG4M (antibody, V domains shown, anti-PD1 humanized antibody, human IgG4 (S228P) / kappa; also called KA-1807 H107D12-10V4-hlgG4M) VH: QVQLVESGGGLVKPGGSLRLSCAASGFTFSDYGMHWIRQAPGKGLEWVAYISSGSYTIYYADTVRDRFTISRDSAKNSLYLQMNSLRAEDTAVYYCVRRGPGYFGSTALDYWGQGTTVTVSS VL: DIQITQSPSSLSASVGDRVTITCSATSGVSYMHWYQQKPGKAPKRLIYDTSRLASGVPSRFSGSGSGTDYTLTISSLQPEDFATYYCQQWSSNPPYTFGQGTRLEIKR",IC50,[1],0.158 µg/mL
same,Kd,[14],6960 pM
same,koff,[14],0.00143 s⁻¹
same,kon,[14],205000 M⁻¹ s⁻¹
same,EC50,[2],0.193 µg/mL
